Source: patent US20060024287A1 (published 2006)

T1: recombinant human full-length TrpRS (SY variant) with C-terminal His6-tag
T1 chain: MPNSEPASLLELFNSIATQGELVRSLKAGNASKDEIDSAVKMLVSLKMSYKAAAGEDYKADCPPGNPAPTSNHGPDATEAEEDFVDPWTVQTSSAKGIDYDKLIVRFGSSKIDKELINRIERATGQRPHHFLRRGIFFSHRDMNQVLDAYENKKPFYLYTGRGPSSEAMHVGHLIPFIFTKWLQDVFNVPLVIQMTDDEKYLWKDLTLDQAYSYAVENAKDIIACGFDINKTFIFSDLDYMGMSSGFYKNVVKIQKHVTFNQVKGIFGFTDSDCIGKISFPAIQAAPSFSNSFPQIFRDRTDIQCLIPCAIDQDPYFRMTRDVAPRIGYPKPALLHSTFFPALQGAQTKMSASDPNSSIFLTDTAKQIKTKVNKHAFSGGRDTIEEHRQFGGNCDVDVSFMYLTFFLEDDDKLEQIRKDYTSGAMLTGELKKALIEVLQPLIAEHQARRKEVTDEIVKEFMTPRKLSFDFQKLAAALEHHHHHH

B1: PMN elastase (protein)
chain: IVGGRRARPHAWPFMVSLQLRGGHFCGATLIAPNFVMSAAHCVANVNVRAVRVVLGAHNLSRREPTRQVFAVQRIFENGYDPVNLLNDIVILQLNGSATINANVQVAQLPAQGRRLGNGVQCLAMGWGLLGRNRGIASVLQELNVTVVTSLCRRSNVCTLVRGRQAGVCFGDSGSPLVCNGLIHGIASFVRGGCASGLYPDAFAPVAQFVNWIDSIIQ
B2: T2-TrpRS (SY variant, without 6-His tag) produced by E. coli expression of the vector of SEQ ID NO: 70 (pAS-001) (other)
chain: SAKGIDYDKLIVRFGSSKIDKELINRIERATGQRPHHFLRRGIFFSHRDMNQVLDAYENKKPFYLYTGRGPSSEAMHVGHLIPFIFTKWLQDVFNVPLVIQMTDDEKYLWKDLTLDQAYSYAVENAKDIIACGFDINKTFIFSDLDYMGMSSGFYKNVVKIQKHVTFNQVKGIFGFTDSDCIGKISFPAIQAAPSFSNSFPQIFRDRTDIQCLIPCAIDQDPYFRMTRDVAPRIGYPKPALLHSTFFPALQGAQTKMSASDPNSSIFLTDTAKQIKTKVNKHAFSGGRDTIEEHRQFGGNCDVDVSFMYLTFFLEDDDKLEQIRKDYTSGAMLTGELKKALIEVLQPLIAEHQARRKEVTDEIVKEFMTPRKLSFDFQ
notes: the entries describe two such monomers associating non-covalently into a dimer; also called T2-TrpRS product

Columns and labels:
[1] = target: T1, recombinant human full-length TrpRS (SY …)
[2] = target: the molecule itself; assay: SDS-PAGE, unheated against heated samples; band at roughly 86 kDa disappears on heating, band at roughly 43 kD remains

Protein | cleavage seen on 12.5% SDS-polyacrylamide gels [1] | binding result [2]
B1 | cleavage of full-length TrpRS (SY variant) by PMN elastase generated a major fragment of about 46 kDa (SEQ ID NO: 25) and a minor fragment of about 43.5 kDa (SEQ ID NO: 24) | 
B2 |  | binds
